Experimental data published in patent US20050176062A1, “Method of identifying ligands for nuclear receptors” (priority 2002, published 2005).
Blank lines part the entries; values can stand above or below the molecule they belong to. Where no end group is shown, it is not given here. The star is where a group is joined. Biotin = O=C1N[C@H]2[C@H](CS[C@H]2CCCCC(=O)*)N1

T1: (His)6RORa-LBD269-556 (Homo sapiens, UniProt P35398)
T1 construct: Extraction is performed by mixing 2 ml of a solution containing (His)6RORa-LBD269-556 at 4.6 mg/ml; made in house; host or cells: Sf9 insect cells (baculovirus)
T1 sequence (P35398 269-556 isoform P35398-1): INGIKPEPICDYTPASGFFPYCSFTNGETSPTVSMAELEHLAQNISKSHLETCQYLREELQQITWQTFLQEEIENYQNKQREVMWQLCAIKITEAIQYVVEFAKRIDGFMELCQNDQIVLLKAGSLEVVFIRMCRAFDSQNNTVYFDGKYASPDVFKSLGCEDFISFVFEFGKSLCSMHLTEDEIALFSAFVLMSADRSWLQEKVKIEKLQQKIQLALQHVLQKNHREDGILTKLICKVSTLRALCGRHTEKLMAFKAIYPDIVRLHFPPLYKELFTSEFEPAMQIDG

T2: (His)6RORa-LBD304-556 (Homo sapiens, UniProt P35398)
T2 construct: Crystals are obtained for the construct (His)6RORa-LBD304-556 and diffraction data are collected to 1.88 Å; 6xHis (N); made in house; host or cells: Sf9 insect cells (baculovirus)
T2 sequence (P35398 304-556 isoform P35398-1): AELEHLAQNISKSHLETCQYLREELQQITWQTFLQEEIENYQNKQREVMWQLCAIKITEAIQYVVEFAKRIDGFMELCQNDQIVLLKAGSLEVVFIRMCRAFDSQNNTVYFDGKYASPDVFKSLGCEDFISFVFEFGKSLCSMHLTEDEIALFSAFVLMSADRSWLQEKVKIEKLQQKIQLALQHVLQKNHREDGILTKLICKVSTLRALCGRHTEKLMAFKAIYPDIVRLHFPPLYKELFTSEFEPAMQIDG

T3: ERα-LBD / GRIP1 peptide interaction (Homo sapiens, UniProt P03372)
T3 construct: Control proteins (His)6ERα-LBD301-553 and (His)6cytohesin-1 are cloned and expressed in E. coli; (His)6; made in house; host or cells: E. coli
T3 sequence (P03372 301-553): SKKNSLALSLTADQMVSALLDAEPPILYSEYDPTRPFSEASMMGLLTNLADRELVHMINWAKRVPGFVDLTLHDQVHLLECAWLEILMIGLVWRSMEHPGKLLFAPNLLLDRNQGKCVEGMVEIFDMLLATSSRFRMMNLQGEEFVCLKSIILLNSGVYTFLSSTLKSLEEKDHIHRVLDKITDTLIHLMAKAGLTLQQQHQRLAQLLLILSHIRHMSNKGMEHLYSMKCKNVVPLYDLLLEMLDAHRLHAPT

B1: biotinylated 24-mer GRIP1 peptide (Biotinyl-GSTHGTSLKEKHKILHRLLQDSSS-NH2) (peptide)
peptide: Biotin-GSTHGTSLKEKHKILHRLLQDSSS-NH2
SMILES: CC[C@H](C)[C@H](NC(=O)[C@H](CCCCN)NC(=O)[C@H](Cc1c[nH]cn1)NC(=O)[C@H](CCCCN)NC(=O)[C@H](CCC(=O)O)NC(=O)[C@H](CCCCN)NC(=O)[C@H](CC(C)C)NC(=O)[C@H](CO)NC(=O)[C@@H](NC(=O)CNC(=O)[C@H](Cc1c[nH]cn1)NC(=O)[C@@H](NC(=O)[C@H](CO)NC(=O)CNC(=O)CCCC[C@@H]1SC[C@@H]2NC(=O)N[C@@H]21)[C@@H](C)O)[C@@H](C)O)C(=O)N[C@@H](CC(C)C)C(=O)N[C@@H](Cc1c[nH]cn1)C(=O)N[C@@H](CCCNC(=N)N)C(=O)N[C@@H](CC(C)C)C(=O)N[C@@H](CC(C)C)C(=O)N[C@@H](CCC(N)=O)C(=O)N[C@@H](CC(=O)O)C(=O)N[C@@H](CO)C(=O)N[C@@H](CO)C(=O)N[C@@H](CO)C(N)=O
notes: Synthetic (Mimotopes #814201), immobilized on a streptavidin coated SA-chip; also called biotinylated GRIP1 peptide; immobilized GRIP1 peptide
B2: non-biotinylated 20-mer GRIP1 peptide … (peptide)
peptide: GTSLKEKHKILHRLLQDSSS
modifications: not fully specified
B3: (His)6ERα-LBD301-553 (receptor, UniProt P03372 301-553, looked up)
chain: T3 sequence (P03372 301-553)
notes: Control protein, expressed in E. coli, purified by Ni-NTA and size exclusion; Tested alone, after preincubation with E2 (10 µM) and with the antagonist BA31257; also called ER-LBD; not shown: (His)6 tag
B4: (His)6ERa-LBD301-553: control protein, His-tagged ERα ligand binding domain 301-553, cloned and expressed in E. coli (protein)
chain: T3 sequence (P03372 301-553)
modifications: left off: small tags and cut ends

How the values were obtained:
[1] = biological target: biotinylated 24-mer GRIP1 peptide (Biotinyl-…-NH2) (mouse); assay: Biacore SPR, biotinylated peptide on streptavidin SA-chip, RORα-LBD injected
(His)6RORa-LBD269-556 = biological target: T1, (His)6RORa-LBD269-556; assay: GC-MS of the hexane extract of (His)6RORa-LBD269-556 (identification of bound ligands); details: GC/MS after BSTFA derivatization, protein from Sf9 cells
Protocol: Extraction is performed by mixing 2 ml of a solution containing (His)6RORa-LBD269-556 at 4.6 mg/ml and 2 ml of hexane and shaking for 1 minute. The aqueous phase is extracted a second time using the same procedure. The organic phases are pooled and evaporated to dryness under nitrogen. The extract is dissolved in […] pyridine. An aliquot of 10 ml is derivatized with 5 ml N,O-bistrimethylsilyl-trifluoroacetamide (BSTFA) at 60° C. for 30 min. Reference compounds cholesterol and 7-dehydrocholesterol (Sigma) are derivatized following the same procedure. For structure elucidation, the underivatized and the derivatized sample and reference compounds are analyzed by GC/MS, respectively.
The GC/MS system consists of a Carlo Erba Mega 5160 gas chromatograph, which is coupled to a Finnigan TSQ-700 mass spectrometer equipped with an electron impact ion source (EI). The ion source is heated to a temperature of 150° C., filament current is 20 mA, electron multiplier voltage 1000V, and the conversion dynode is set to 15 kV. The scan range is m/z 100-700 with a scan time of 2 seconds. The gas chromatographic separation is performed on a 10 m×0.2 mm Duran glass column coated with a […] film of SDPE-08 using hydrogen as carrier gas at a constant flow rate of 2.5 ml/min. The temperature program is set to 100-330° C. at a rate of 6° C./min. The GC/MS interface temperature is set to 350° C. […]

(His)6RORa-LBD304-556 = biological target: T2, (His)6RORa-LBD304-556; assay: X-ray crystallography of (His)6RORa-LBD304-556 (ligand in the ligand binding pocket); details: 1.88 Å diffraction data
Text: Crystals are obtained for the construct (His)6RORa-LBD304-556 and diffraction data are collected to 1.88 Å at the synchrotron (SNBL, ESRF Grenoble). The structure is solved ab initio with a Hg-derivative.
The excellent fit to the electron density allows the identification of the ligand to be cholesterol. […] Based on the X-ray structure, proposals are made for cholesterol derivatives, and in particular cholesterol sulfate is proposed as a ligand with a higher affinity to RORa than cholesterol, because of the electrostatic interactions with two Arg-side chains at the hydrophilic end of the LBP. Confirmation of the presence of cholesterol and comparative binding studies between cholesterol and cholesterol sulfate are further achieved by mass spectrometry on construct (His)6RORa-LBD269-556.

(His)6ERα-LBD301-553 [2] = biological target: B3; assay: Biacore SPR, biotinylated peptide on SA-chip, ER-LBD preincubated with E2 (10 µM)
(His)6ERα-LBD301-553 [3] = biological target: B3; assay: Biacore SPR, biotinylated peptide on SA-chip, ER-LBD without added ligand (basal)
[4] = biological target: (His)6RORα-LBD269-556 (human) (UniProt P35398); assay: Biacore SPR competition: free 20-mer peptide inhibits binding of RORα-LBD to the immobilized 24-mer GRIP1 peptide
[5] = biological target: B1; assay: Biacore SPR, ER-LBD preincubated with E2 (10 µM) against ER-LBD without ligand
[6] = biological target: T3, ERα-LBD / GRIP1 peptide interaction; assay: Biacore binding assay of (His)6ERa-LBD301-553 to immobilized GRIP1 peptide (positive control); details: basal level, no ligand; read-out: apparent Kd of ERa-LBD binding to immobilized GRIP1 peptide

- Kd [1]: 241 nM
Molecule: (His)6RORα-LBD269-556 (from UniProt P35398 269-523) (receptor)

Molecule: CC(C)CCC[C@@H](C)[C@H]1CC[C@H]2C3=CC=C4C[C@@H](O)CC[C@]4(C)[C@H]3CC[C@]12C [7-Dehydrocholesterol]
- SIC-% of compound in the extract of (His)6RORa-LBD269-556 ((His)6RORa-LBD269-556): 18.3%

- SIC-% of compound in the extract of (His)6RORa-LBD269-556 ((His)6RORa-LBD269-556): 77.4%
Molecule: CC(C)CCC[C@@H](C)[C@H]1CC[C@H]2[C@@H]3CC=C4C[C@@H](O)CC[C@]4(C)[C@H]3CC[C@]12C [Cholesterol]
- ligand found in the LBP by electron density ((His)6RORa-LBD304-556): unambiguous identification of the ligand as cholesterol

Molecule: B1
- Kd ((His)6ERα-LBD301-553 [2]): ~70 nM
- Kd ((His)6ERα-LBD301-553 [3]): ~450 nM

Molecule: B2
- IC50 [4]: 3000 nM

Molecule: B3
- fold increase of binding affinity [5]: 6.5 fold

Molecule: B4
- Kd [6]: ~450 nM
